Earlier results, collected in publication PMC8745080.

What was measured:
His98 [1] = biological target: His98 (UniProt position 99, SEKFSHEQEVK); assay: not stated (the review mentions pH-dependent NMR measurements on cL-BABP in the same section); settings: apo (ligand-free), folded
His98 [2] = biological target: T1, His98 (UniProt position 99, NFPNYHQTSEI); assay: NMR; settings: apo (ligand-free), folded
His98 [3] = biological target: T1, His98; assay: not stated (NMR inferred from the apo data of the same reference); settings: holo (bile-salt-bound; identity of the bound bile salts not given), folded

Row | Substance | pKa (His98 [1]) | pKa (His98 [2]) | pKa (His98 [3])
1 | Chicken liver bile acid-binding protein (cL-BABP; liver basic fatty acid-binding protein) (Gallus gallus) | 4.7 | – | –
2 | Human ileal bile acid-binding protein (hI-BABP; gastrotropin, FABP6), common isoform (Homo sapiens) | – | 6.6 | 7.0
